Data as given in patent US20100303724A1 (UNIVERSITE PARIS DIDEROT PARIS 7, published 2010).
Bridge positions count the residues as written; N and C are the ends. * marks the point of attachment. Biotin = O=C1N[C@H]2[C@H](CS[C@H]2CCCCC(=O)*)N1

Experiments:
[1] = molecular target: T1, type I equine fibrillar collagen (Collagen Horm, Nycomed) (equine); assay: SPR; biotin-collagelin injected on collagen amine-coupled to a CM5 sensorchip
T1 construct: Bought fibrillar preparation; also called type I collagen; fibrillar type I collagen
Procedure: FIG. 2: Interaction of the collagelin with collagen: A Collagen was injected on biotin-collagelin immobilized on a streptavidin coated sensorchip. ˜10 RU collagen were bound onto the collagelin coated surface (dark). The fit is also indicated (grey). Non-specific background signal from a control flow cell coated with an irrelevant peptide was deduced. B Binding of collagelin to immobilized collagen. Increasing quantities of biotin-collagelin (250, 500 μg.mL−1) were injected on a collagen immobilized on a CM5 sensorchip. Sensorgrams and interaction fits obtained with the peptide are shown in black and grey respectively. Non-specific background measured using an irrelevant peptide was deduced.
In other experiments, fibrillar collagen was manually immobilized on a CM5-sensorchip according to the manufacturer's instructions (Biacore, Uppsala, Sweden). The biotinylated peptide (125; 250, 500 and 1000 μg/mL) was injected on immobilized collagen at 25° C. with a flow rate of 20 μL.min−1. In competition experiments, the peptide was pre-incubated with recombinant soluble human GPVI-Fc or the 9O12.2 IgGs before injection onto the surface. The surface plasmon resonance intensity was monitored and data analyzed using BioEval2.0 (Biacore).
Using the streptavidin-coated sensorship onto which biotin-collagelin was immobilized we observed binding of type I collagen to the surface (FIG. 2A). […]

[2] = molecular target: T2, bovine fibrinogen (Sigma) (bovine, UniProt P02672 20-615; P02676 1-468; P12799 25-444, limits assumed); assay: Solid phase assay: biotin-collagelin on coated fibrinogen, detected with peroxidase-coupled extravidin [panel B]
T2 construct: Bought protein
T2 sequence (looked up) 1: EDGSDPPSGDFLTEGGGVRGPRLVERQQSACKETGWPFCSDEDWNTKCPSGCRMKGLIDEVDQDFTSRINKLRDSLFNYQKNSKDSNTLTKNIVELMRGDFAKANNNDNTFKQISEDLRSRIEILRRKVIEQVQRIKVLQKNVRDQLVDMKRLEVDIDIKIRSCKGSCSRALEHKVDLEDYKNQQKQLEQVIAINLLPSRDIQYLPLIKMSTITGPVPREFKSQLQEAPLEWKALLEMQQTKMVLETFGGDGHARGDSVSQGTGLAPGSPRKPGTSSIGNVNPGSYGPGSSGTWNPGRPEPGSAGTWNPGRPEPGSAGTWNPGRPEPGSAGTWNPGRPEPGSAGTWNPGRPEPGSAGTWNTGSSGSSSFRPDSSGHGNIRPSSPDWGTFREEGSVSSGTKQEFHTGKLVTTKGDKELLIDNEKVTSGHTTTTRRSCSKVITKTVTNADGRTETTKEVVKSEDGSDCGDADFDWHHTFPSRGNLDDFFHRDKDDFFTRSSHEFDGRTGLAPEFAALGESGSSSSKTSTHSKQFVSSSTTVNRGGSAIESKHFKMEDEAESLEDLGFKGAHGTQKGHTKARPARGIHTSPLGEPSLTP
T2 sequence (looked up) 2: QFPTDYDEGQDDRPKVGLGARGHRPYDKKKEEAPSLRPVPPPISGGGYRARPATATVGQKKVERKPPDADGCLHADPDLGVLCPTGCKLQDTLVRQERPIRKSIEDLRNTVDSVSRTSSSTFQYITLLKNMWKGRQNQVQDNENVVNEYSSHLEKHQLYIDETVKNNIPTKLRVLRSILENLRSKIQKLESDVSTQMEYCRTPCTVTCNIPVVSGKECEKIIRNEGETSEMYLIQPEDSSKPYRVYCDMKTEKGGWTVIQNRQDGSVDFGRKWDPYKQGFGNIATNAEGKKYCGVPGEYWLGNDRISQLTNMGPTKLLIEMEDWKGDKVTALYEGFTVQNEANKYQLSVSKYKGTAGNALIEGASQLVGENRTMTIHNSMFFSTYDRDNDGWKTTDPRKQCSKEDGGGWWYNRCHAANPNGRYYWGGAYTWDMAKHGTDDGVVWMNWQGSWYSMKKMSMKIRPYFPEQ
T2 sequence (looked up) 3: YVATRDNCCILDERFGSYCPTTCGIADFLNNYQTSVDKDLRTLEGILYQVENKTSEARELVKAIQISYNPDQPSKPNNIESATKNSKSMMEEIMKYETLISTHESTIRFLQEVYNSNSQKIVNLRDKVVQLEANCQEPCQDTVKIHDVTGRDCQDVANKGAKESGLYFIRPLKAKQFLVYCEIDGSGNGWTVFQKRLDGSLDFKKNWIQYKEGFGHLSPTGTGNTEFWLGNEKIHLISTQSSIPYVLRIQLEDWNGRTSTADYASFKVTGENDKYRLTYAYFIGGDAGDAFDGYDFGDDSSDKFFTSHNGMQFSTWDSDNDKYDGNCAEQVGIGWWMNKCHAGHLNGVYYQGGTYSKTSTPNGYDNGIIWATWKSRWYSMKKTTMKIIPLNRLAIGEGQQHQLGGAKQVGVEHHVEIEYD
Procedure: (§1) FIG. 3: Peptide Interaction with collagen and with different macromolecules: A Binding of collagelin to immobilized collagen in microtitration plates. biotin-collagelin or control peptide were incubated with immobilized fibrillar type I collagen and bound peptide was detected using peroxydase-coupled extravidine. In competition experiments collagelin was mixed with recombinant soluble GPVI (50 and 20 μg.mL−1), 9O12 IgGs (50 and 20 μg.mL−1) or 3J24.2 IgGs (50 μg.mL−1) prior to addition to collagen-coated wells. B: Binding of biotin-collagelin or control peptide (50 μg.mL−1) to immobilized fibrinogen, fibronectin, vitronectin and laminin. Coating of microtitration wells with the different proteins was performed as with collagen. Bound peptides were detected using peroxidase coupled extravidine.
(§2) Proteins [type I equine fibrillar collagen (Horm), bovine fibrinogen (Sigma), human fibronectin (Sigma), rat vitronectin (Sigma), murine laminin (Gibco), and bovine serum albumin (BSA Sigma)] were coated (1 μg/well) on microtitration plates (Immulon 2 Dynex vWR) for 24 hours at 4° C. After saturation of free sites with BSA, biotinylated FLIGPVI peptide (50 μg/ml) was added to the wells for 2 hours. The peptide bound to the wells was then detected using extravidin-HRP and orthophenyldiamine as substrate.

[3] = molecular target: T3, soluble recombinant GPVI-Fc fusion protein (human, UniProt Q9HCN6 21-269, limits assumed); assay: SPR; biotin-collagelin on a streptavidin sensorchip
T3 construct: also called recombinant soluble GPVI; recombinant soluble human GPVI-Fc; not shown: Fc part
T3 sequence (looked up): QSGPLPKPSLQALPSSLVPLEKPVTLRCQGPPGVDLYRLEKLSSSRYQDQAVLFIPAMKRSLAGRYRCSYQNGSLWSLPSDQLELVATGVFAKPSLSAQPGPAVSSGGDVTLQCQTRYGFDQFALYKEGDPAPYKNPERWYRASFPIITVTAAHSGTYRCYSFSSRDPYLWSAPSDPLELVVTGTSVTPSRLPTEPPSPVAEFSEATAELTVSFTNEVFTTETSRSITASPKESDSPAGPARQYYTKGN

[4] = molecular target: T4, human fibronectin (Sigma) (human, UniProt P02751-8 32-2296, limits assumed); assay: Solid phase assay: biotin-collagelin on coated fibronectin, detected with peroxidase-coupled extravidin [panel B]
T4 construct: Bought protein
T4 sequence (P02751 other isoform, or with tags, fused parts or gaps limits assumed): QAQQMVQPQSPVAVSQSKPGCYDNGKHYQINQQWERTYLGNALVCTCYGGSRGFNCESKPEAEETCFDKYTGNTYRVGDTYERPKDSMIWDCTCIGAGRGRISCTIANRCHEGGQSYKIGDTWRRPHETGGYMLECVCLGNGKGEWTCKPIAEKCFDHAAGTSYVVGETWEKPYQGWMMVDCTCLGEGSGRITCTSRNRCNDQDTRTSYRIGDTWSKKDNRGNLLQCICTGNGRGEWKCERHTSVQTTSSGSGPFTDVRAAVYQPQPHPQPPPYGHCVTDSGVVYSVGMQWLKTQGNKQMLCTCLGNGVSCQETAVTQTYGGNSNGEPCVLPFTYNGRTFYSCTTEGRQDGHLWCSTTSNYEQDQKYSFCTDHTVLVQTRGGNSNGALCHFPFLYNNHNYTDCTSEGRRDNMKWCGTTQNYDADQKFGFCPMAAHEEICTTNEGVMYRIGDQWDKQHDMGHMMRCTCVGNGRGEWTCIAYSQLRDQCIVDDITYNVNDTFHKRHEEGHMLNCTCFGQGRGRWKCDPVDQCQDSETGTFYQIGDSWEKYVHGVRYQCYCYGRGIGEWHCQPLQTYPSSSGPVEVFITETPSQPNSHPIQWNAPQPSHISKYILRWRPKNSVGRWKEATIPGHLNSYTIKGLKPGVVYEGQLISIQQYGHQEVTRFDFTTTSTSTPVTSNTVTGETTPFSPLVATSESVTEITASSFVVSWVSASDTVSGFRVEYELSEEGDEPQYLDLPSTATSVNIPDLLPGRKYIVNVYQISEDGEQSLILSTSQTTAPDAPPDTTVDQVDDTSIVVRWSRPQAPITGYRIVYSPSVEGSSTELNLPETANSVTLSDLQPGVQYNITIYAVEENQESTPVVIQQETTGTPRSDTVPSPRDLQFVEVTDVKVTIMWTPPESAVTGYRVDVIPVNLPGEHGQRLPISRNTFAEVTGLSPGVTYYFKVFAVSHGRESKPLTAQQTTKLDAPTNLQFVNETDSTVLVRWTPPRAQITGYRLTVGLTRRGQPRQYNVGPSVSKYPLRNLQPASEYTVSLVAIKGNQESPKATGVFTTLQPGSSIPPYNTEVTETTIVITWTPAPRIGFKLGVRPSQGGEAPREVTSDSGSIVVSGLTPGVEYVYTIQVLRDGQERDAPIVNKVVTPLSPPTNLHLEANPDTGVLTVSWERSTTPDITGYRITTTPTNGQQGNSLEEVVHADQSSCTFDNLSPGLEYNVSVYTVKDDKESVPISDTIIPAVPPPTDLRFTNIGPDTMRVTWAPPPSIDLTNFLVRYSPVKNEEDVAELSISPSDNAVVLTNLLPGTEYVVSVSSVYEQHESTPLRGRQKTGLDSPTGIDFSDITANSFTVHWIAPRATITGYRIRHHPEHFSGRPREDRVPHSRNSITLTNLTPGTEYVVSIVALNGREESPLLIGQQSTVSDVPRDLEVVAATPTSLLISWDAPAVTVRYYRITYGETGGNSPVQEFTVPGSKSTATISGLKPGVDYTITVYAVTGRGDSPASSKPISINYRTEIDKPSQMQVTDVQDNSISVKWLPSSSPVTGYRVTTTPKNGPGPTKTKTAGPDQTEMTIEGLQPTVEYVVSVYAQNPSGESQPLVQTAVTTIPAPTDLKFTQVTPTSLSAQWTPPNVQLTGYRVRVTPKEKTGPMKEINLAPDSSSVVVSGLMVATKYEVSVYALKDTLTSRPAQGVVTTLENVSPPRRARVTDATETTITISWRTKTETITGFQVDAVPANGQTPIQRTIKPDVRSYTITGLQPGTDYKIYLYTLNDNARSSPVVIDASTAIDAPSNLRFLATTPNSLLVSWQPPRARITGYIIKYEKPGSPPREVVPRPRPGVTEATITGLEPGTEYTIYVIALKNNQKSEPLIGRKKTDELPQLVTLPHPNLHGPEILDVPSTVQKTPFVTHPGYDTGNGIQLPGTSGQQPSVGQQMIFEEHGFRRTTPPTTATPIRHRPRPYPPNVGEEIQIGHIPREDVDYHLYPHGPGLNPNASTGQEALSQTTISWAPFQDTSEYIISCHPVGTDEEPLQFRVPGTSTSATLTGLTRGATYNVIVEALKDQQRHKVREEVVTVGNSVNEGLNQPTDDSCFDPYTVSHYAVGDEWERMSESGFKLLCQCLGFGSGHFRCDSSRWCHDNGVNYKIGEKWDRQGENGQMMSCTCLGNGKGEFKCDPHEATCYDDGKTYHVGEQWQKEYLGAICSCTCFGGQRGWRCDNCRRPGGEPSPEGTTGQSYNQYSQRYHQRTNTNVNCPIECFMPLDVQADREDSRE
Procedure: as §1, §2

B1: biotin-collagelin (peptide)
peptide: Biotin-SGSGCGPRVMHGLHLGDDEGPC-NH2
modifications: disulfide 5-22
SMILES: CSCC[C@@H]1NC(=O)[C@H](C(C)C)NC(=O)[C@H](CCCNC(=N)N)NC(=O)[C@@H]2CCCN2C(=O)CNC(=O)[C@@H](NC(=O)CNC(=O)[C@H](CO)NC(=O)CNC(=O)[C@H](CO)NC(=O)CCCC[C@@H]2SC[C@@H]3NC(=O)N[C@@H]32)CSSC[C@@H](C(N)=O)NC(=O)[C@@H]2CCCN2C(=O)CNC(=O)[C@H](CCC(=O)O)NC(=O)[C@H](CC(=O)O)NC(=O)[C@H](CC(=O)O)NC(=O)CNC(=O)[C@H](CC(C)C)NC(=O)[C@H](Cc2c[nH]cn2)NC(=O)[C@H](CC(C)C)NC(=O)CNC(=O)[C@H](Cc2c[nH]cn2)NC1=O
notes: also called biotinylated collagelin
- Kd [1]: 100 nM
- binding result [2]: no binding (tested: 50 µg/mL (legend))
- binding result [3]: no binding (tested: 25 µg/ml)
- binding result [4]: no binding (tested: 50 µg/mL (legend))
